The values below are quoted from earlier work in patent publication US20250304973A1, “HIGH-AFFINITY THROMBIN APTAMERS AND METHODS OF USE” (Ayass Bioscience LLC, priority 2024, published 2025).

The conditions of this data set: reversal of dabigatran.

B1: Idarucizumab: a monoclonal antibody that binds to dabigatran and neutralizes its anticoagulant properties (antibody, chains of the INN, looked up, V domains shown)
VH: QVQLQESGPGLVKPSETLSLTCTVSGFSLTSYIVDWIRQPPGKGLEWIGVIWAGGSTGYNSALRSRVSITKDTSKNQFSLKLSSVTAADTAVYYCASAAYYSYYNYDGFAYWGQGTLVTVSS
VL: DVVMTQSPLSLPVTLGQPASISCKSSQSLLYTDGKTYLYWFLQRPGQSPRRLIYLVSKLDSGVPDRFSGSGSGTDFTLKISRVEAEDVGVYYCLQSTHFPHTFGGGTKVEIK
modifications: Fab
On to B1, for which the “time to reversal of anticoagulant effect” value is reported as “this in ~2-4 hours”.
